# Assay results taken from paper PMC8248410 (Chemmedchem, 2021).
# The star is where a group is joined. Biotin = O=C1N[C@H]2[C@H](CS[C@H]2CCCCC(=O)*)N1; Ahx = NCCCCCC(=O)O
# Biological target: gp120_(HxBc2) (HIV-1 (HxBc2), UniProt P04578 33-511)
# Test: cell-based or functional assay
row,Binder,IC50 of inhibition of HIV-1 NL4-3 infection of CEMx174 SEAP reporter cells [nM]
1,Ac-LCDCPNGPWVWVPAFCQAVG-OH (cysteine pairing not given here) [P6‐2],2630
2,{Biotin-Ahx}-LCDCPNGPWVWVPAFCQAVG-OH (cysteine pairing not given here) [P6‐2(Bio)],1240
